Measured values reported in article PMC4931022, “Arginine demethylation is catalysed by a subset of JmjC histone lysine demethylases” (Nature Communications, 2016).

Legend:
KDM5C(1-765) (human) = target: T1, KDM5C(1-765) (human) (UniProt P41229)
T1 sequence: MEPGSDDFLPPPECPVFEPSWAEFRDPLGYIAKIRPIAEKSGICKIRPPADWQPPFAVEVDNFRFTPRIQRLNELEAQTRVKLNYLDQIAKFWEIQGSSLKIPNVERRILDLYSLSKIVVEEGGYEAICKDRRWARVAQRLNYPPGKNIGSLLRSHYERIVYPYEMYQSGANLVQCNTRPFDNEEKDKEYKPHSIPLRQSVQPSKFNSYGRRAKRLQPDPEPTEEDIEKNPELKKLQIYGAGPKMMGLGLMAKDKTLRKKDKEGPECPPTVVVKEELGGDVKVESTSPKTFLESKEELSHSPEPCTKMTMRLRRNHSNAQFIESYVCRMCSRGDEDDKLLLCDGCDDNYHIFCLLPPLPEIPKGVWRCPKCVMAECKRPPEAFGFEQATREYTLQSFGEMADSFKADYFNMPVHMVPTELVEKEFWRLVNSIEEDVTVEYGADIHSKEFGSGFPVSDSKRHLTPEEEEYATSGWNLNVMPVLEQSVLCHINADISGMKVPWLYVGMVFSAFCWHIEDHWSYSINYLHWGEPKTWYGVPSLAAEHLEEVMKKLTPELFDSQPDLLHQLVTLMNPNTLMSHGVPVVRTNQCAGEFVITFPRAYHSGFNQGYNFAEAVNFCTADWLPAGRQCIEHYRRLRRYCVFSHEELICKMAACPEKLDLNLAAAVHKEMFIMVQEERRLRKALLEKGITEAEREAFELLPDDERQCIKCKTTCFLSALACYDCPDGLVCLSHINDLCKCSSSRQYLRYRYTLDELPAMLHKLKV

[1] = target: KDM6B(1,141-1,590) (human) (UniProt O15054)
KDM3A(515-1,317) (human) = target: T2, KDM3A(515-1,317) (human) (UniProt Q9Y4C1)
T2 sequence: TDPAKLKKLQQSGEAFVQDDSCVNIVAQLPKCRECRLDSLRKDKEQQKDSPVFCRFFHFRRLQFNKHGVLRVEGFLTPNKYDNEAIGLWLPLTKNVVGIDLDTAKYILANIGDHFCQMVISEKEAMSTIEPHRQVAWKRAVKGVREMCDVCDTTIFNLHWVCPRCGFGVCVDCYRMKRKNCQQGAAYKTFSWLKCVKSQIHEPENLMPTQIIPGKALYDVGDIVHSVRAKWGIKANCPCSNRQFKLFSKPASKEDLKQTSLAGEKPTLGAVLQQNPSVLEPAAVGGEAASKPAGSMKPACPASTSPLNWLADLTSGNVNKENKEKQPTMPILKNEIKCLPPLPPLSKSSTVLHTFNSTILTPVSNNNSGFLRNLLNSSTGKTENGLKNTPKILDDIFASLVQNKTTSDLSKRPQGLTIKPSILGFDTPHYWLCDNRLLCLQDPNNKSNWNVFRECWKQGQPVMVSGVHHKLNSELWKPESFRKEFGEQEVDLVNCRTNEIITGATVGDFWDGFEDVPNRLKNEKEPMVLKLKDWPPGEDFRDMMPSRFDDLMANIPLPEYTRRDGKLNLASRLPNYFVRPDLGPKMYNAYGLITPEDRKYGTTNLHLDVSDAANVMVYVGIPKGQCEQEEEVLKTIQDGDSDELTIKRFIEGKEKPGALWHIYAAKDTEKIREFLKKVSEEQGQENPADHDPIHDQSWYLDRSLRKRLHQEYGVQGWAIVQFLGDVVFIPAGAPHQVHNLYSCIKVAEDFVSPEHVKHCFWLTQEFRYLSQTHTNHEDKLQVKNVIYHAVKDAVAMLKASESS

KDM4E(1-337) (human) = target: T3, KDM4E(1-337) (human) (UniProt B2RXH2)
T3 sequence: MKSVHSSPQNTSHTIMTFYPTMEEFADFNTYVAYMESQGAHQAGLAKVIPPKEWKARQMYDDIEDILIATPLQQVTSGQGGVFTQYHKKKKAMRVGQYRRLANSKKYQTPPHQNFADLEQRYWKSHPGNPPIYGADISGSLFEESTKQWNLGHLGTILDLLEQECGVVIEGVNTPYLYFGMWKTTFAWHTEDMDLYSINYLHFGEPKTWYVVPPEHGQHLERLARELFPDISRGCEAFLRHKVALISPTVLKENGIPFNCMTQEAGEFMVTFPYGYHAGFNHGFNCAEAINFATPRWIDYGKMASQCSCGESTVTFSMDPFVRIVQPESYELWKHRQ

Chain of KDM6B(1,141-1,590) (human) (O15054 1141-1590): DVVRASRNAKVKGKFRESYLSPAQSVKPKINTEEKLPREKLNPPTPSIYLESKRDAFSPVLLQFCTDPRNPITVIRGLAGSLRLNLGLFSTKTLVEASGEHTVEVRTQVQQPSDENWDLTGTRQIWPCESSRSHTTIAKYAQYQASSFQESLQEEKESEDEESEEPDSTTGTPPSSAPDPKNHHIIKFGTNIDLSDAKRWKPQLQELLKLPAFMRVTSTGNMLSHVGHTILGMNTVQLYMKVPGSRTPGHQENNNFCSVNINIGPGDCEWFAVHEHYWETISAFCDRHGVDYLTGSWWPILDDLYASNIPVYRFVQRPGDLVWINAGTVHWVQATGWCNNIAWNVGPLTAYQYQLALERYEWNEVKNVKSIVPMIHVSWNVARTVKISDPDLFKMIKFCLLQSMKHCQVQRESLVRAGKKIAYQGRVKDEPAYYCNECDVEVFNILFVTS

| Substance | apparent KM, formaldehyde dehydrogenase-coupled demethylation assay (KDM5C(1-765) (human)) [µM] | apparent KM, formaldehyde dehydrogenase-coupled demethylation assay (KDM3A(515-1,317) (human)) [µM] | apparent KM, formaldehyde dehydrogenase-coupled demethylation assay (KDM4E(1-337) (human)) [µM] | further results |
| --- | --- | --- | --- | --- |
| H3(1-15)K4Rme2a (from UniProt P68431 2-16) (peptide) | 29 | – | – | – |
| H3(14-34)K27Rme2a (from UniProt P68431 15-35) (peptide) | – | – | – | apparent KM, formaldehyde dehydrogenase-coupled demethylation assay [1]: 676 µM |
| H3(1-15)K9Rme (from UniProt P68431 2-16) (peptide) | – | 12.1 | 169 | – |
| H3(1-15)K9me3 (from UniProt P68431 2-16) (peptide) | – | – | 17.8 | – |
| H3(14-34)K27me3 (from UniProt P68431 15-35) (peptide) | – | – | – | apparent KM, formaldehyde dehydrogenase-coupled demethylation assay [1]: 6.7 µM |
| H3(1-15)K9Rme2s (from UniProt P68431 2-16) (peptide) | – | 23.7 | 101 | – |

Now from value to substance, other results behind:

| apparent KM, formaldehyde dehydrogenase-coupled demethylation assay (KDM5C(1-765) (human)) [µM] | apparent KM, formaldehyde dehydrogenase-coupled demethylation assay (KDM3A(515-1,317) (human)) [µM] | apparent KM, formaldehyde dehydrogenase-coupled demethylation assay (KDM4E(1-337) (human)) [µM] | Substance | further results |
| --- | --- | --- | --- | --- |
| – | 11.6 | 66 | H3(1-15)K9Rme2a (from UniProt P68431 2-16) (peptide) | – |
| 7.6 | – | – | H3(1-15)K4me3 (from UniProt P68431 2-16) (peptide) | – |
| 21.1 | – | – | H3(1-15)K4Rme2s (from UniProt P68431 2-16) (peptide) | – |
| – | 44.5 | – | H3(1-15)K9me2 (from UniProt P68431 2-16) (peptide) | – |
